Data: FireProtDB (doi:10.1074/jbc.m102741200)
“And” between values parts separate entries of the source, which are not always exact repeats. Equal values may be shown once.

B1: Alpha-amylase, P29957 (parent)
chain: MKLNKIITTAGLSLGLLLPSIATATPTTFVHLFEWNWQDVAQECEQYLGPKGYAAVQVSPPNEHITGSQWWTRYQPVSYELQSRGGNRAQFIDMVNRCSAAGVDIYVDTLINHMAAGSGTGTAGNSFGNKSFPIYSPQDFHESCTINNSDYGNDRYRVQNCELVGLADLDTASNYVQNTIAAYINDLQAIGVKGFRFDASKHVAASDIQSLMAKVNGSPVVFQEVIDQGGEAVGASEYLSTGLVTEFKYSTELGNTFRNGSLAWLSNFGEGWGFMPSSSAVVFVDNHDNQRGHGGAGNVITFEDGRLYDLANVFMLAYPYGYPKVMSSYDFHGDTDAGGPNVPVHNNGNLECFASNWKCEHRWSYIAGGVDFRNNTADNWAVTNWWDNTNNQISFGRGSSGHMAINKEDSTLTATVQTDMASGQYCNVLKGELSADAKSCSGEVITVNSDGTINLNIGAWDAMAIHKNAKLNTSSASSTESDWQRTVIFINAQTQSGQDMFIRGGIDHAYANANLGRNCQTSNFECAMPIRHNNLKNVTTSPWKANDNYLDWYGIENGQSSEAEGSATDWTTNVWPAGWGAEKTVNTDGFGVTPLNIWGEHYWMLDVDMDCSKAVNGWFELKAFIKNGQGWETAIAQDNAPYTSTNHMAQCGKINKFEFNNSGVVIRSF

Variants of: B1
Details: Pseudoalteromonas haloplanktis; pH 7.2; Thermal; DSC; MOPS 30 mM; NaCl 50 mM; reversible: yes(97 %); structure 1AQH; whole UniProt chain shown

Row | Variant | Tm [°C] | unfolding enthalpy (calorimetric) [kJ/mol] | unfolding enthalpy (van 't Hoff) [kJ/mol]
1 | N174D | 44.8 | 1130 | 1000

Same assay, conditions: Pseudoalteromonas haloplanktis; pH 7.2; Thermal; DSC; MOPS 30 mM; NaCl 50 mM; reversible: yes(25 %); structure 1AQH; whole UniProt chain shown

Row | Variant | Tm [°C] | unfolding enthalpy (calorimetric) [kJ/mol] | unfolding enthalpy (van 't Hoff) [kJ/mol]
2 | N36R | 43.3 | 808 | 967

Same assay, conditions: Pseudoalteromonas haloplanktis; pH 7.2; Thermal; DSC; MOPS 30 mM; NaCl 50 mM; transition: 3; reversible: yes(85 %); structure 1AQH; whole UniProt chain shown

Row | Variant | Tm | unfolding enthalpy (calorimetric) | unfolding enthalpy (van 't Hoff)
3 | T256V | 42.7 °C and 45.7 °C | 427 kJ/mol and 435 kJ/mol | 477 kJ/mol and 845 kJ/mol

Same assay, conditions: Pseudoalteromonas haloplanktis; pH 7.2; Thermal; DSC; MOPS 30 mM; NaCl 50 mM; reversible: yes(60 %); structure 1AQH; whole UniProt chain shown

Row | Variant | Tm [°C] | unfolding enthalpy (calorimetric) [kJ/mol] | unfolding enthalpy (van 't Hoff) [kJ/mol]
4 | V220F | 45.4 | 979 | 1240

Same assay, conditions: Pseudoalteromonas haloplanktis; pH 7.2; Thermal; DSC; MOPS 30 mM; NaCl 50 mM; transition: 3; reversible: yes(51 %); structure 1AQH; whole UniProt chain shown

Row | Variant | Tm [°C] | unfolding enthalpy (calorimetric) [kJ/mol] | unfolding enthalpy (van 't Hoff) [kJ/mol]
5 | Q188I V220F | 44.7 | 347 | 506

Same assay, conditions: Pseudoalteromonas haloplanktis; pH 7.2; Thermal; DSC; MOPS 30 mM; NaCl 50 mM; reversible: yes(96 %); structure 1AQH; whole UniProt chain shown

Row | Variant | Tm [°C] | unfolding enthalpy (calorimetric) [kJ/mol] | unfolding enthalpy (van 't Hoff) [kJ/mol]
6 | R88E | 42.6 | 987 | 469

Same assay, conditions: Pseudoalteromonas haloplanktis; pH 7.2; Thermal; DSC; MOPS 30 mM; NaCl 50 mM; reversible: yes(81 %); structure 1AQH; whole UniProt chain shown

Row | Variant | Tm [°C] | unfolding enthalpy (calorimetric) [kJ/mol] | unfolding enthalpy (van 't Hoff) [kJ/mol]
7 | L243R | 42.5 | 908 | 782

Same assay, conditions: Pseudoalteromonas haloplanktis; pH 7.2; Thermal; DSC; MOPS 30 mM; NaCl 50 mM; reversible: yes(76 %); structure 1AQH; whole UniProt chain shown

Row | Variant | Tm [°C] | unfolding enthalpy (calorimetric) [kJ/mol] | unfolding enthalpy (van 't Hoff) [kJ/mol]
8 | E303W | 41.4 | 778 | 979

Same assay, conditions: Pseudoalteromonas haloplanktis; pH 7.2; Thermal; DSC; MOPS 30 mM; NaCl 50 mM; reversible: yes(91 %); structure 1AQH; whole UniProt chain shown

Row | Variant | Tm [°C] | unfolding enthalpy (calorimetric) [kJ/mol] | unfolding enthalpy (van 't Hoff) [kJ/mol]
9 | N174D V220F | 46.4 | 1140 | 1130

Same assay, conditions: Pseudoalteromonas haloplanktis; pH 7.2; Thermal; DSC; MOPS 30 mM; NaCl 50 mM; transition: 3; reversible: yes(64 %); structure 1AQH; whole UniProt chain shown

Row | Variant | Tm | unfolding enthalpy (calorimetric) | unfolding enthalpy (van 't Hoff)
10 | Q188I | 42.7 °C and 45.2 °C | 364 kJ/mol and 490 kJ/mol | 490 kJ/mol and 1000 kJ/mol

Same assay, conditions: Pseudoalteromonas haloplanktis; pH 7.2; Thermal; DSC; MOPS 30 mM; NaCl 50 mM; transition: 3; reversible: yes(95 %); structure 1AQH; whole UniProt chain shown

Row | Variant | unfolding enthalpy (calorimetric) | unfolding enthalpy (van 't Hoff)
11 | M403V | 531 kJ/mol and 351 kJ/mol | 402 kJ/mol and 573 kJ/mol

Same assay, conditions: Pseudoalteromonas haloplanktis; pH 7.2; Thermal; DSC; MOPS 30 mM; NaCl 50 mM; transition: 3; reversible: yes(30 %); structure 1AQH; whole UniProt chain shown

Row | Variant | unfolding enthalpy (calorimetric) | unfolding enthalpy (van 't Hoff)
12 | N312V | 368 kJ/mol and 247 kJ/mol | 556 kJ/mol and 477 kJ/mol
